Test results reported in patent EP1327681A1.
One block for each molecule: values may come before it.

Columns and labels:
[1] = molecular target: human TPO receptor (MPL) expressed on Ba/F3 cells (human) (UniProt P40238); test: cell-based or functional assay
[2] = molecular target: human TPO receptor (MPL) expressed on Ba/F3 cells (human) (UniProt P40238); test: cell-based or functional assay; remark: listed apart in the source

ED50, proliferation of BaF/mpl cells (WST-8) [1]: 0.027 nM
Molecule: human TPO (R&D Systems) (from UniProt P40225 22-353) (ligand)

ED50, TPO-like agonist activity, proliferation of BaF/mpl cells (WST-8) [2]: 29 nM
B1: antibody 12B5 (IgG) (antibody, from another filing)
scFv: QVQLVQSGGGLVRPGGSLSLSCAVSGITLRTYGMHWVRQAPGKGLEWVAGISFDGRSEYYADSVQGRFTISRDSSKNTLYLQMNSLRAEDTAVYYCARGAHYGFDIWGQGTMVTVSSGGGGTGGGGSGGGGSDIQMTQSPSTLSASIGDRVTITCRASEGIYHWLAWYQQKPGKAPKLLIYKASSLASGAPSRFSGSGSGTDFTLTISSLQPDDFATYYCQQYSNYPLTFGGGTKLEIK
